Assay results published in patent US20200190220A1 (FRED HUTCHINSON CANCER RESEARCH CENTER, published 2020).
Where no end group is shown, it is not given here. [ ]: non-standard residue; d: D form. The star is where a group is joined. FITC = O=C1OC2(c3ccc(O)cc3Oc3cc(O)ccc32)c2ccc(NC(=S)*)cc21; pY = N[C@@H](Cc1ccc(OP(=O)(O)O)cc1)C(=O)O; Ahx = NCCCCCC(=O)O

Target: T1, FITC-labeled peptide with the target sequence for the SH2 domain, EHIpYDEVAAD
T1 construct: also called N-Glu-His-Ile-pTyr-Asp-Glu-Val-Ala-Ala-Asp-C
T1 peptide: {FITC-Ahx}-EHI[pY]DEVAAD
Experiment: fluorescence anisotropy of FITC-labeled peptide against rising protein concentration (FIG. 16D)
Description: FIGS. 16A-16E. Functional (peptide-binding) characterization of dTor_12×31L_SH2_single (12× scaffold containing 1 SH2 domain). FIG. 16A: SDS-PAGE electrophoretic analysis of purified dTor_12×31L SH2_single (corresponding to a monomeric cTRP containing 12 repeats, interrupted within repeat #3 by an SH2 domain derived from the human Nck2 adapter protein). FIG. 16B: ribbon diagram of the design of dTor_12×31L SH2_single, visualized from the top and the side of the designed protein repeats. FIG. 16C: Size Exclusion Chromatographic (SEC) separation and analysis of purified dTor_12×31L_SH2_single. Hydrodynamic radii of purified constructs, measured using dynamic light scattering (DLS), is also indicated. FIG. 16D: Binding of peptide corresponding to sequence by dTor_12×31L_SH2_single. Binding measured by monitoring Fluorescence Anisotropy signal from a labeled peptide as a function of increasing protein concentration. […]
Determination of ligand binding using Fluorescence Polarization (FP): Each protein construct was 2-fold serially diluted into twelve concentrations, from 23 μM to 0.011 μM, using FP Buffer (20 mM HEPES+150 mM KCl at pH7.4). […] Background was subtracted from raw perpendicular and parallel fluorescence intensity, which were then converted to fluorescence polarization (mP) by the following equation: […]

B1: dTor_12×31L (non-functionalized, lacking any inserted SH2 domain) (designed binder)
chain: GSSMASGISVEELLKLAKAAYYSGTTVEEAYKLALKLGISVEELLKLAEAAYYSGTTVEEAYKLALKLGISVEELLKLAKAAYYSGTTVEEAYKLALKLGISVEELLKLAKAAYYSGTTVEEAYKLALKLGISVEELLKLAEAAYYSGTTVEEAYKLALKLGISVEELLKLAKAAYYSGTTVEEAYKLALKLGISVEELLKLAKAAYYSGTTVEEAYKLALKLGISVEELLKLAEAAYYSGTTVEEAYKLALKLGISVEELLKLAKAAYYSGTTVEEAYKLALKLGISVEELLKLAKAAYYSGTTVEEAYKLALKLGISVEELLKLAEAAYYSGTTVEEAYKLALKLGISVEELLKLAKAAYYSGTTVEEAYKLALKLG
- binding result: no binding
